The source of these data is ChEMBL document CHEMBL4038281, “Competitive protein tyrosine phosphatase 1B (PTP1B) inhibitors, prenylated caged xanthones from Garcinia hanburyi and their inhibitory mechanism” (Bioorg Med Chem, 2017).

One may read the Km as the substrate concentration at which the rate is half of its maximum.

Substrate in data set [1]: CC(C)=CCC[C@]1(C)C=Cc2c(O)c3c(c(CC=C(C)C)c2O1)O[C@]12C(=C[C@@H]4C[C@H]1C(C)(C)O[C@@]2(C/C=C(/C)C(=O)O)C4=O)C3=O
The following applies: Homo sapiens; 12.4 uM.

Substrate in data set [2]: CC(C)=CCC[C@]1(C)C=Cc2c(O)c3c(c(CC=C(C)C)c2O1)O[C@]12C(=C[C@@H]4C[C@H]1C(C)(C)O[C@@]2(C/C=C(/C)C(=O)O)C4=O)C3=O
The following applies: Homo sapiens; 24.8 uM.

Substrate in data set [3]: CC(C)=CCC[C@]1(C)C=Cc2c(O)c3c(c(CC=C(C)C)c2O1)O[C@]12C(=C[C@@H]4C[C@H]1C(C)(C)O[C@@]2(C/C=C(/C)C(=O)O)C4=O)C3=O
The following applies: Homo sapiens; 24.8 uM. This is another data set of the same source.
Description: Competitive inhibition of recombinant human PTP1B (1 to 322 residues) expressed in Escherichia coli assessed as substrate Km at 24.8 uM using pNPP as substrate by Lineweaver-Burk plot analysis

Substrate in data set [4]: CC(C)=CCC[C@]1(C)C=Cc2c(O)c3c(c(CC=C(C)C)c2O1)O[C@]12C(=C[C@@H]4C[C@H]1C(C)(C)O[C@@]2(C/C=C(/C)C(=O)O)C4=O)C3=O
Particulars: Homo sapiens; 49.6 uM.
Description: Competitive inhibition of recombinant human PTP1B (1 to 322 residues) expressed in Escherichia coli assessed as substrate Km at 49.6 uM using pNPP as substrate by Lineweaver-Burk plot analysis

Substrate in data set [5]: CC(C)=CCC[C@]1(C)C=Cc2c(O)c3c(c(CC=C(C)C)c2O1)O[C@]12C(=C[C@@H]4C[C@H]1C(C)(C)O[C@@]2(C/C=C(/C)C(=O)O)C4=O)C3=O
The following applies: Homo sapiens; 12.4 uM. This is another data set of the same source.
Description: Competitive inhibition of recombinant human PTP1B (1 to 322 residues) expressed in Escherichia coli assessed as substrate Km at 12.4 uM using pNPP as substrate by Lineweaver-Burk plot analysis

Substrate in data set [6]: CC(C)=CCC[C@]1(C)C=Cc2c(O)c3c(c(CC=C(C)C)c2O1)O[C@]12C(=C[C@@H]4C[C@H]1C(C)(C)O[C@@]2(C/C=C(/C)C(=O)O)C4=O)C3=O
Particulars: Homo sapiens; 49.6 uM. The source holds these as a separate data set.

B1: Tyrosine-protein phosphatase non-receptor type 1 (Homo sapiens), P18031 (protein)
chain: MEMEKEFEQIDKSGSWAAIYQDIRHEASDFPCRVAKLPKNKNRNRYRDVSPFDHSRIKLHQEDNDYINASLIKMEEAQRSYILTQGPLPNTCGHFWEMVWEQKSRGVVMLNRVMEKGSLKCAQYWPQKEEKEMIFEDTNLKLTLISEDIKSYYTVRQLELENLTTQETREILHFHYTTWPDFGVPESPASFLNFLFKVRESGSLSPEHGPVVVHCSAGIGRSGTFCLADTCLLLMDKRKDPSSVDIKKVLLEMRKFRMGLIQTADQLRFSYLAVIEGAKFIMGDSSVQDQWKELSHEDLEPPPEHIPPPPRPPKRILEPHNGKCREFFPNHQWVKEETQEDKDCPIKEEKGSPLNAAPYGIESMSQDTEVRSRVVGGSLRGAQAASPAKGEPSLPEKDEDHALSYWKPFLVNMCVATVLTAGAYLCYRFLFNSNT
Turning to B1, the Vmax (optical density/minute) in data set [1] is 12.6; in data set [2], 12.9; in data set [6], 13.7. In addition, the Michaelis constant (Km) amounted to 6.84 mM in data set [3], 12.7 mM in data set [4] and 4.46 mM in data set [5].
